*1 amine or outer side, *2 acyl side, *3 side chain or, on linkers, in order; H or OH if unused. Where no end group is shown, it is not given here. Side-chain parts run from the residue outwards. [ ]: non-standard residue; d: D form. The star is where a group is joined. C20 diacid = O=C(O)CCCCCCCCCCCCCCCCCCC(=O)*; γGlu = O=C(O)[C@H](CCC(=O)[*:2])N[*:1]; NMeI = CC[C@H](C)[C@H](NC)C(=O)O; Pentanoyl = CCCCC(=O)*; AEEA = NCCOCCOCC(=O)O; Aib = CC(C)(N)C(=O)O
Assays:
[1] = biological target: Rat CRF2 a (corticotropin-releasing factor receptor 2), on the A7R5 rat aortic smooth muscle cell line (rat, UniProt P47866 20-411); assay: cell-based or functional assay
[2] = biological target: T1, CRF1R (corticotropin-releasing factor receptor 1), on the CRF1R-overexpression CHO-K1 cell line clone 2 (UniProt P34998 24-415, limits assumed); assay: cell-based or functional assay
T1 sequence (looked up): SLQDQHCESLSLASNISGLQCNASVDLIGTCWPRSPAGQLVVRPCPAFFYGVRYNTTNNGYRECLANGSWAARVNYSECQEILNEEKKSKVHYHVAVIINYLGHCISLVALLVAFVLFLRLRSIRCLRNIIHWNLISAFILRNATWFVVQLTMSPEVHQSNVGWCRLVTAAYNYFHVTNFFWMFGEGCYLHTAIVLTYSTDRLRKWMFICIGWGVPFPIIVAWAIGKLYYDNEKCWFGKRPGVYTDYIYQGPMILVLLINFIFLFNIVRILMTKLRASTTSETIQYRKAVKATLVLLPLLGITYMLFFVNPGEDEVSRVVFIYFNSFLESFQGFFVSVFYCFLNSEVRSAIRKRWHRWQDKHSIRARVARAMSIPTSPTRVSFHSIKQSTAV

Sequence of Rat CRF2 a (corticotropin-releasing factor receptor 2), on the A7R5 rat aortic smooth muscle cell line (P47866 20-411): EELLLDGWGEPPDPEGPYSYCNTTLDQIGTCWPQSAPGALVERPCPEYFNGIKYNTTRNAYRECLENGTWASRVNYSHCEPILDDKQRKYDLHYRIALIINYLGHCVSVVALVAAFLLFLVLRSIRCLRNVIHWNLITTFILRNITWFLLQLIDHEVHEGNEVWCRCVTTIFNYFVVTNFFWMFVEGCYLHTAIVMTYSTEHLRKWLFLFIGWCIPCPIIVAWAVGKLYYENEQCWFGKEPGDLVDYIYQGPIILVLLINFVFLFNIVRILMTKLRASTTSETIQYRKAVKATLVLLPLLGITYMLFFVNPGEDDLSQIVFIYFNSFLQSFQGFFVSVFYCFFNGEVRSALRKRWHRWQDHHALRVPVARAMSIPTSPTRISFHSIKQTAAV

B1: peptide of SEQ ID NO: 237 (peptide)
peptide: [NMeI]VLSLD[dV]PIKLK([AEEA-AEEA-γGlu-C20 diacid])KILLEQEKQKEQREQAETN[Aib]QILAQV-NH2
modifications: N-terminus assumed
SMILES: CC[C@H](C)[C@H](NC)C(=O)N[C@H](C(=O)N[C@@H](CC(C)C)C(=O)N[C@@H](CO)C(=O)N[C@@H](CC(C)C)C(=O)N[C@@H](CC(=O)O)C(=O)N[C@@H](C(=O)N1CCC[C@H]1C(=O)N[C@H](C(=O)N[C@@H](CCCCN)C(=O)N[C@@H](CC(C)C)C(=O)N[C@@H](CCCCNC(=O)COCCOCCNC(=O)COCCOCCNC(=O)CC[C@H](NC(=O)CCCCCCCCCCCCCCCCCCC(=O)O)C(=O)O)C(=O)N[C@@H](CCCCN)C(=O)N[C@H](C(=O)N[C@@H](CC(C)C)C(=O)N[C@@H](CC(C)C)C(=O)N[C@@H](CCC(=O)O)C(=O)N[C@@H](CCC(N)=O)C(=O)N[C@@H](CCC(=O)O)C(=O)N[C@@H](CCCCN)C(=O)N[C@@H](CCC(N)=O)C(=O)N[C@@H](CCCCN)C(=O)N[C@@H](CCC(=O)O)C(=O)N[C@@H](CCC(N)=O)C(=O)N[C@@H](CCCNC(=N)N)C(=O)N[C@@H](CCC(=O)O)C(=O)N[C@@H](CCC(N)=O)C(=O)N[C@@H](C)C(=O)N[C@@H](CCC(=O)O)C(=O)N[C@H](C(=O)N[C@@H](CC(N)=O)C(=O)NC(C)(C)C(=O)N[C@@H](CCC(N)=O)C(=O)N[C@H](C(=O)N[C@@H](CC(C)C)C(=O)N[C@@H](C)C(=O)N[C@@H](CCC(N)=O)C(=O)N[C@H](C(N)=O)C(C)C)[C@@H](C)CC)[C@@H](C)O)[C@@H](C)CC)[C@@H](C)CC)C(C)C)C(C)C
With B1 the “EC50 [nM] 0% HSA (cAMP, A7R5 rat aortic smooth muscle cells)” value (“EC50 [nM] 0% HSA” for short) [1] was 0.63 nM, the “EC50 [nM] (cAMP, CRF1R-overexpression CHO-K1 cells)” value [2] was over 250 nM and the “Emax (% I) (cAMP, 100% = Sauvagine at 100 nM)” value (“Emax (% I)” below) [2] was 6 % I.

B2: peptide of SEQ ID NO: 236 (peptide)
peptide: Ac-IVLSLD[dV]PIKLK([AEEA-AEEA-γGlu-C20 diacid])KILLEQEKQKEQREQAETN[Aib]QILAQV-NH2
SMILES: CC[C@H](C)[C@H](NC(C)=O)C(=O)N[C@H](C(=O)N[C@@H](CC(C)C)C(=O)N[C@@H](CO)C(=O)N[C@@H](CC(C)C)C(=O)N[C@@H](CC(=O)O)C(=O)N[C@@H](C(=O)N1CCC[C@H]1C(=O)N[C@H](C(=O)N[C@@H](CCCCN)C(=O)N[C@@H](CC(C)C)C(=O)N[C@@H](CCCCNC(=O)COCCOCCNC(=O)COCCOCCNC(=O)CC[C@H](NC(=O)CCCCCCCCCCCCCCCCCCC(=O)O)C(=O)O)C(=O)N[C@@H](CCCCN)C(=O)N[C@H](C(=O)N[C@@H](CC(C)C)C(=O)N[C@@H](CC(C)C)C(=O)N[C@@H](CCC(=O)O)C(=O)N[C@@H](CCC(N)=O)C(=O)N[C@@H](CCC(=O)O)C(=O)N[C@@H](CCCCN)C(=O)N[C@@H](CCC(N)=O)C(=O)N[C@@H](CCCCN)C(=O)N[C@@H](CCC(=O)O)C(=O)N[C@@H](CCC(N)=O)C(=O)N[C@@H](CCCNC(=N)N)C(=O)N[C@@H](CCC(=O)O)C(=O)N[C@@H](CCC(N)=O)C(=O)N[C@@H](C)C(=O)N[C@@H](CCC(=O)O)C(=O)N[C@H](C(=O)N[C@@H](CC(N)=O)C(=O)NC(C)(C)C(=O)N[C@@H](CCC(N)=O)C(=O)N[C@H](C(=O)N[C@@H](CC(C)C)C(=O)N[C@@H](C)C(=O)N[C@@H](CCC(N)=O)C(=O)N[C@H](C(N)=O)C(C)C)[C@@H](C)CC)[C@@H](C)O)[C@@H](C)CC)[C@@H](C)CC)C(C)C)C(C)C
In the case of B2, the “EC50 [nM] 0% HSA” value [1] is reported as 2.81 nM, the “EC50 [nM] (cAMP, CRF1R-overexpression CHO-K1 cells)” value [2] is reported as over 250 nM and the “Emax (% I)” value [2] is reported as 7 % I.

B3: peptide of SEQ ID NO: 235 (peptide)
peptide: Pentanoyl-VLSLD[dV]PIKLK([AEEA-γGlu-C20 diacid])KILLEQEKQKKQREQAETN[Aib]QILAQV-NH2
SMILES: CCCCC(=O)N[C@H](C(=O)N[C@@H](CC(C)C)C(=O)N[C@@H](CO)C(=O)N[C@@H](CC(C)C)C(=O)N[C@@H](CC(=O)O)C(=O)N[C@@H](C(=O)N1CCC[C@H]1C(=O)N[C@H](C(=O)N[C@@H](CCCCN)C(=O)N[C@@H](CC(C)C)C(=O)N[C@@H](CCCCNC(=O)COCCOCCNC(=O)CC[C@H](NC(=O)CCCCCCCCCCCCCCCCCCC(=O)O)C(=O)O)C(=O)N[C@@H](CCCCN)C(=O)N[C@H](C(=O)N[C@@H](CC(C)C)C(=O)N[C@@H](CC(C)C)C(=O)N[C@@H](CCC(=O)O)C(=O)N[C@@H](CCC(N)=O)C(=O)N[C@@H](CCC(=O)O)C(=O)N[C@@H](CCCCN)C(=O)N[C@@H](CCC(N)=O)C(=O)N[C@@H](CCCCN)C(=O)N[C@@H](CCCCN)C(=O)N[C@@H](CCC(N)=O)C(=O)N[C@@H](CCCNC(=N)N)C(=O)N[C@@H](CCC(=O)O)C(=O)N[C@@H](CCC(N)=O)C(=O)N[C@@H](C)C(=O)N[C@@H](CCC(=O)O)C(=O)N[C@H](C(=O)N[C@@H](CC(N)=O)C(=O)NC(C)(C)C(=O)N[C@@H](CCC(N)=O)C(=O)N[C@H](C(=O)N[C@@H](CC(C)C)C(=O)N[C@@H](C)C(=O)N[C@@H](CCC(N)=O)C(=O)N[C@H](C(N)=O)C(C)C)[C@@H](C)CC)[C@@H](C)O)[C@@H](C)CC)[C@@H](C)CC)C(C)C)C(C)C
B3 was tested, and the “EC50 [nM] 0% HSA” value [1] was 0.17 nM, the “EC50 [nM] (cAMP, CRF1R-overexpression CHO-K1 cells)” value [2] was over 250 nM and the “Emax (% I)” value [2] was 27 % I.

B4: peptide of SEQ ID NO: 234 (peptide)
peptide: [NMeI]VLSLD[dV]PIKLK([AEEA-γGlu-C20 diacid])KILLEQEKQK[Aib]QREQAETN[Aib]QILAQV-NH2
modifications: N-terminus assumed
SMILES: CC[C@H](C)[C@H](NC)C(=O)N[C@H](C(=O)N[C@@H](CC(C)C)C(=O)N[C@@H](CO)C(=O)N[C@@H](CC(C)C)C(=O)N[C@@H](CC(=O)O)C(=O)N[C@@H](C(=O)N1CCC[C@H]1C(=O)N[C@H](C(=O)N[C@@H](CCCCN)C(=O)N[C@@H](CC(C)C)C(=O)N[C@@H](CCCCNC(=O)COCCOCCNC(=O)CC[C@H](NC(=O)CCCCCCCCCCCCCCCCCCC(=O)O)C(=O)O)C(=O)N[C@@H](CCCCN)C(=O)N[C@H](C(=O)N[C@@H](CC(C)C)C(=O)N[C@@H](CC(C)C)C(=O)N[C@@H](CCC(=O)O)C(=O)N[C@@H](CCC(N)=O)C(=O)N[C@@H](CCC(=O)O)C(=O)N[C@@H](CCCCN)C(=O)N[C@@H](CCC(N)=O)C(=O)N[C@@H](CCCCN)C(=O)NC(C)(C)C(=O)N[C@@H](CCC(N)=O)C(=O)N[C@@H](CCCNC(=N)N)C(=O)N[C@@H](CCC(=O)O)C(=O)N[C@@H](CCC(N)=O)C(=O)N[C@@H](C)C(=O)N[C@@H](CCC(=O)O)C(=O)N[C@H](C(=O)N[C@@H](CC(N)=O)C(=O)NC(C)(C)C(=O)N[C@@H](CCC(N)=O)C(=O)N[C@H](C(=O)N[C@@H](CC(C)C)C(=O)N[C@@H](C)C(=O)N[C@@H](CCC(N)=O)C(=O)N[C@H](C(N)=O)C(C)C)[C@@H](C)CC)[C@@H](C)O)[C@@H](C)CC)[C@@H](C)CC)C(C)C)C(C)C
B4 was tested, and the “EC50 [nM] 0% HSA” value [1] was 0.05 nM, the “EC50 [nM] (cAMP, CRF1R-overexpression CHO-K1 cells)” value [2] was over 250 nM and the “Emax (% I)” value [2] was 15 % I.

From patent US20260001928A1 (CORTERIA PHARMACEUTICALS, priority 2022, published 2026)
